Data reported in paper PMC5748111.

Molecular target: CaMKII (human CaMKIIδ, form used for the solution kinetics not stated) (human) (UniProt Q13557)
Sequence of UniProt Q13557 (Q13557 1-478, stated change not applied): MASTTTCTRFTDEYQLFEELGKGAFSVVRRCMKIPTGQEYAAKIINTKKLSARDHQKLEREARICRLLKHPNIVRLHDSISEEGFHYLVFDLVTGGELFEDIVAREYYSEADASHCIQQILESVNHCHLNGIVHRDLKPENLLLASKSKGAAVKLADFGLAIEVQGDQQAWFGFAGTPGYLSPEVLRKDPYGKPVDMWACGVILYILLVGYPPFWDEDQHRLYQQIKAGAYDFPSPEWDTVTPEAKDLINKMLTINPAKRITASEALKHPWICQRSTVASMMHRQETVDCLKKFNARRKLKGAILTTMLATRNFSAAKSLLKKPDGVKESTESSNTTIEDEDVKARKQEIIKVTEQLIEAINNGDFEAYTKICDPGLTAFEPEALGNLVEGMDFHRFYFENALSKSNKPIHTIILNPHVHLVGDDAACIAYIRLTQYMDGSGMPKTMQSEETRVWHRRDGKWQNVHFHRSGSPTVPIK

Binder	Km of peptide phosphorylation, standard solution kinetics [µM]
GFCLIPQQSINEAIR [GluA1_(S849) peptide]	> 1000
RNKLRRQHSYDTFVD [GluN2B_(S1303) peptide]	4.6

Results, then the binder that gave them:

Km of peptide phosphorylation, standard solution kinetics [µM]	Binder
> 1000	PGVRLLQDSVDFSLA [VimentinS83 peptide]
43.5	PLARTLSVAGLPGKK [Syntide peptide]
